The record followed here is PMC4828312.

Broadly, the Kd is the concentration at which binding is half-saturated.

Experiment [1] concerns the target Assembled microtubules (containing ~25% of TUBB3) (porcine). As to the kind of experiment: SPR. A general note: SPR reads the build-up and loss of mass on a sensor chip optically.
The target in experiment [2] is Human recombinant tubulin β-3 (TUBB3) (human) (UniProt Q13509). As to the kind of experiment: SPR.
Sequence of Human recombinant tubulin β-3 (TUBB3) (human) (Q13509 whole entry): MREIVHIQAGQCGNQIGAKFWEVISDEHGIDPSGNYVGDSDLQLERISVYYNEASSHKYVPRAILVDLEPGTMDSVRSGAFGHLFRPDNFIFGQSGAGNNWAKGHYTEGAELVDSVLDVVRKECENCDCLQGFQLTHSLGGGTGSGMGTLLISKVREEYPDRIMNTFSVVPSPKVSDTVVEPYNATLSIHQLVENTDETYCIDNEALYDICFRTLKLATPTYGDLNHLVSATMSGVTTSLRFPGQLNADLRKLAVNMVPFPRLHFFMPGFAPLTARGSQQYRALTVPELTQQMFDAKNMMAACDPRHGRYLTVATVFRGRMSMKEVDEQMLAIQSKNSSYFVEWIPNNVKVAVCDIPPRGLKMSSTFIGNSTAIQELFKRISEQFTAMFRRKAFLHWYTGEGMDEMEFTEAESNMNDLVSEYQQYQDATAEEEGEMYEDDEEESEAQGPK

For the substance “HIV-1 envelope glycoprotein gp120, strain MN (from UniProt P05877 32-513) (natural protein)”, the Kd in experiment [1] was 62.7 nM.

For “HIV-1 envelope glycoprotein gp120, strain IIIB (from UniProt P04578 33-511) (natural protein)”, the Kd in experiment [1] was 10 nM.

Consider “HIV-1 envelope glycoprotein gp120, strain ADA (natural protein)”, for which the equilibrium dissociation constant (Kd) in experiment [2] worked out at 10.3 nM; in experiment [1], 12 nM.
